The data set has as its system GFPY40 reporter (GFP containing an amber codon) in HEK293 cells stably expressing pylRS. Put plainly: Amber suppression-dependent GFP expression (GFPY40 reporter), transient transfection, flow cytometry. The data set is classed as cell-based. The note with it: for capacity to support amber suppression relative to H1 WT tRNA (FIG. 4): all tRNA variants under control of the H1 promoter, 1 ug construct + 1 ug GFPY40, lys azide 2 mM, 18 hours; for GFP MFI, FIG. 8: 1 ug PCR product of each construct, lys azide nnAA. On the procedure:
To assess the function of the tRNA variants, an in vitro assay was established where cells are transiently transfected with a tRNA construct and a reporter construct encoding GFP containing an amber codon interrupting its reading frame (GFPY40). HEK293 cells stably expressing pylRS were transiently transfected with various tRNA constructs (1 ug) and the GFPY40 reporter (1 ug). In the absence of elements that support amber suppression, a truncated GFP protein is generated and the cell is not fluorescent. However, the introduction of a functional tRNA and the presence of a nnAA that supports amber suppression allows for the production of full length GFP resulting in fluorescent cells. The level of GFP expression reflects the efficiency of amber suppression and is quantified by flow cytometry. tRNA genes encoding wild type tRNApyl (WT tRNA), or containing mutations in the B-box (B tRNA—SEQ ID No 9), in both the A and B box (A2B tRNA—SEQ ID No 10), or in the A box (A1 tRNA-SEQ ID No 7; or A2 tRNA SEQ ID No 11), all under control of the H1 promoter were generated by site directed mutagenesis and assayed. The H1 promoter ensured that the variants were expressed and allowed us to examine the functional effects of the mutations introduced into the tRNA genes. In addition a sample transfected with GFPY40 alone was generated to establish background GFP levels. The transfected cells were grown in presence of the aminoacid analogue lys azide (2 mM) and incubated for 18 hours. GFP fluorescence was then assayed by flow cytometry and mean fluorescence intensity determined for each sample. Data were analysed with FCS Express and the mean fluorescence intensity of each sample determined using markers that constrain the data set to cells showing fluorescence above negative controls.
To begin to assess whether the tRNA mutations can support expression of the tRNA we assayed tRNA constructs encoding the wild type tRNA in the absence of the H1 promoter. Constructs encoding wild type tRNApyl (WT tRNA) or containing mutations in the B-box (B tRNA—SEQ ID No 9) or in both the A and B box (A2B; A2B tRNA—SEQ ID No 10) were assayed using our in vitro amber suppression assay described above. WT tRNA under control of the H1 promoter (H1-tRNA) was used as a positive control, and in addition one sample was transfected only with the GFPY40 reporter to illustrate background amber suppression in the absence of tRNA. The transfected cells were exposed to 2 mM lys-azide nnAA and cells incubated for three days. GFP expression was examined by flow cytometry and mean fluorescence intensity determined.
Two copies of the WT, B, or A2B tRNA were cloned in tandem to generate a single vector containing two copies of WT, B, or A2B tRNA. To assess the effect of increased gene doses by these constructs, cells expressing WTpylRS were transiently transfected with the tRNA constructs and the GFPY40 reporter construct and GFP expression assayed after two days.
The activity of each construct was assessed by transient transfection into cells stably expressing WT pylRS with the GFPY40 reporter as described above. For this experiment, 1 ug of a PCR product encoding each of the indicated constructs was used. In each case, cells were exposed to the lys azide nnAA for three days and GFP levels assayed by flow cytometry. Mean fluorescence intensities were determined for each sample and plotted (FIG. 8).

Setting [1] is: 2 mM lys-azide nnAA, three days.

This is an account of results in patent US10131920B2, “Nucleic acid molecules” (MEDIMMUNE LIMITED, priority 2013, dated 2018).

B1: A2B tRNA: tRNApyl Methanosarcina mazei with A10G, T14A, A52C mutations (nucleic acid)
DNA: GGAAACCTGGTCAAGTAGATCGAATGGACTCTAAATCCGTTCAGCCGGGTTCGATTCCCGGGGTTTCCG
modifications: expressed or natural sequence
notes: tRNApyl Methanosarcina mazei with A10G, T14A, A52C mutations
Turning to B1, the “capacity to support amber suppression relative to H1 WT tRNA (FIG. 4)” value was “support amber suppression, albeit at a lower level than the WT tRNA”. Moreover, under setting [1], the “GFP mean fluorescence intensity (MFI), FIG. 5” value is on record as 242,747.9 and the “fold higher expression of GFP than the wt tRNA construct (FIG. 5)” value is 2.5 fold. Besides, under “cells expressing WTpylRS, after two days, single copy”, the “GFP MFI, single copy tRNA, FIG. 7” value was 61,950. Besides, for the setting “cells expressing WTpylRS, after two days, single vector containing two copies in tandem”, the “GFP MFI, tandem copies of tRNA, FIG. 7” value is reported as 96,158.

B2: 7SL tRNA A1: tRNA-A1 downstream of the 7SL promoter 5′ region (nucleic acid)
DNA: CCCAGTTGATGACGTCACCATACCACAGCTTCTAGTGCTATTCTGCGCCGGTATCCGACCACCAGGAAACCTGGTCATGTAGATCGAATGGACTCTAAATCCGTTCAGCCGGGTTAGATTCCCGGGGTTTCCGGACAAGTGCGGTTTTT
modifications: Synthetic sequence 7SL tRNA-A1 construct
notes: tRNA-A1 downstream of the 7SL promoter 5′ region
For B2, the “GFP MFI, FIG. 8” value (three days) is reported as 114,393.

B3: 7SL A2B: tRNA-A2B downstream of the 7SL promoter 5′ region (nucleic acid)
DNA: CCCAGTTGATGACGTCACCATACCACAGCTTCTAGTGCTATTCTGCGCCGGTATCCGACCACCAGGAAACCTGGTCAAGTAGATCGAATGGACTCTAAATCCGTTCAGCCGGGTTCGATTCCCGGGGTTTCCGGACAAGTGCGGTTTTT
modifications: Synthetic sequence 7SL tRNA-A2B construct
notes: tRNA-A2B downstream of the 7SL promoter 5′ region
As for B3, the “GFP MFI, FIG. 8” value (three days) is given as 245,120.

B4: 7SL AB: tRNA-AB downstream of the 7SL promoter 5′ region (nucleic acid)
DNA: CCCAGTTGATGACGTCACCATACCACAGCTTCTAGTGCTATTCTGCGCCGGTATCCGACCACCAGGAAACCTGGTCATGTAGATCGAATGGACTCTAAATCCGTTCAGCCGGGTTCGATTCCCGGGGTTTCCGGACAAGTGCGGTTTTT
modifications: Synthetic sequence 7SL tRNA-AB construct
notes: tRNA-AB downstream of the 7SL promoter 5′ region
With B4, the “GFP MFI, FIG. 8” value (three days) is listed as 210,380.

B5: H1-A1 tRNA: tRNA-A1 (A10G) under control of the H1 promoter (nucleic acid)
DNA: AATATTTGCATGTCGCTATGTGTTCTGGGAAATCACCATAAACGTGAAATCCCTATCAGTGATAGAGACTTATAAGTTCCCTATCAGTGATAGAGACACCAGGAAACCTGGTCATGTAGATCGAATGGACTCTAAATCCGTTCAGCCGGGTTAGATTCCCGGGGTTTCCGGACAAGTGCGGTTTTTTT
modifications: Synthetic sequence H1 tRNA-A1 construct
notes: tRNA-A1 (A10G) under control of the H1 promoter
Take B5: the “capacity to support amber suppression relative to H1 WT tRNA (FIG. 4)” value is “does not affect the activity of the tRNA”.

B6: H1 A2 tRNA: tRNA-A2 (A10G, T14A) under control of the H1 promoter (nucleic acid)
DNA: AATATTTGCATGTCGCTATGTGTTCTGGGAAATCACCATAAACGTGAAATCCCTATCAGTGATAGAGACTTATAAGTTCCCTATCAGTGATAGAGACACCAGGAAACCTGGTCAAGTAGATCGAATGGACTCTAAATCCGTTCAGCCGGGTTAGATTCCCGGGGTTTCCGGACAAGTGCGGTTTTTTT
modifications: Synthetic sequence H1 tRNA-A2 construct
notes: tRNA-A2 (A10G, T14A) under control of the H1 promoter
In the case of B6, the “capacity to support amber suppression relative to H1 WT tRNA (FIG. 4)” value is listed as “does not affect the activity of the tRNA”.

B7: Vault WT tRNA: WT tRNApyl downstream of the Vault promoter 5′ region (nucleic acid)
DNA: TGGTCGCTGAGTCATGCTGAAGCACTCTCTTTTTGACTCACTCTTTGTGACGTAGGTCTTTCTCACCAGTCAATAAAATATAATCCGAAAGCAACCTCCCACCAGGAAACCTGATCATGTAGATCGAATGGACTCTAAATCCGTTCAGCCGGGTTAGATTCCCGGGGTTTCCGGACAAGTGCGGTTTTT
modifications: Synthetic sequence Vault tRNA-WT construct
notes: WT tRNApyl downstream of the Vault promoter 5′ region
Take B7: the “GFP MFI, FIG. 8” value (three days) is on record as 102,415.

B8: Vault A2B tRNA: tRNA-A2B downstream of the Vault promoter 5′ region (nucleic acid)
DNA: TGGTCGCTGAGTCATGCTGAAGCACTCTCTTTTTGACTCACTCTTTGTGACGTAGGTCTTTCTCACCAGTCAATAAAATATAATCCGAAAGCAACCTCCCACCAGGAAACCTGGTCAAGTAGATCGAATGGACTCTAAATCCGTTCAGCCGGGTTCGATTCCCGGGGTTTCCGGACAAGTGCGGTTTTT
modifications: Synthetic sequence Vault tRNA-A2B construct
notes: tRNA-A2B downstream of the Vault promoter 5′ region
Turning to B8, the “GFP MFI, FIG. 8” value (three days) is listed as 154,445.

B9: Vault B tRNA: tRNA-B downstream of the Vault promoter 5′ region (nucleic acid)
DNA: TGGTCGCTGAGTCATGCTGAAGCACTCTCTTTTTGACTCACTCTTTGTGACGTAGGTCTTTCTCACCAGTCAATAAAATATAATCCGAAAGCAACCTCCCACCAGGAAACCTGATCATGTAGATCGAATGGACTCTAAATCCGTTCAGCCGGGTTCGATTCCCGGGGTTTCCGGACAAGTGCGGTTTTT
modifications: Synthetic sequence Vault tRNA-B construct
notes: tRNA-B downstream of the Vault promoter 5′ region
As to B9, the “GFP MFI, FIG. 9” value (1 ug GFPY40 reporter and 1 ug tRNA expression plasmid) was 168,298. For the same molecule, for the setting “three days”, the “GFP MFI, FIG. 8” value is recorded as 170,838.
